Like-named read-outs stand apart in the source and are kept apart here.
Tests used:
[1] = tested on: HUVEC cells; assay: Induction of TNF-gamma-beta mRNA in HUVEC cells; assay type: cell-based, human; details: for time of peak in expression of TNF-gamma-beta mRNA: after treatment; for TNF-gamma-beta mRNA level: stimulated HUVEC cells
Experimental: More TNF-gamma-beta mRNA was detected than that of TNF-gamma-alpha using both methods.
Total RNA was isolated from human cell lines and primary cells using TriZOL (Invitrogen). TaqMan was carried out in a 25 μl reaction containing 25 ng of total RNA, 0.6 μM each of gene-specific forward and reverse primers and 0.2 μM of gene-specific fluorescence probe. […] Gene-specific PCR products were measured using an ABI PRISM 7700 Sequence Detection System following the manufacturer's instruction (PE Corp.).

[2] = biological target: T1, TNF-gamma-beta (Homo sapiens, UniProt O95150); assay: Inhibition of TNF-gamma-beta activation of NF-κB in 293T cells; assay type: cell-based
T1 construct: made in house; host or cells: E. coli (untagged) or 293T (FLAG-tagged)
T1 sequence (O95150 72-251): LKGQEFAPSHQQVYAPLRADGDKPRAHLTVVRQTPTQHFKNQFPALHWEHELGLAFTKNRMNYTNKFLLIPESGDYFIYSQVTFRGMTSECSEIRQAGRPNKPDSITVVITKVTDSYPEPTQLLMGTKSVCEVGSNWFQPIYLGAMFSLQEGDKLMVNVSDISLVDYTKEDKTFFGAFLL
Experimental: To avoid spontaneous apoptosis or NF-κB activation accompanied with DR3 overexpression, a limited amount of DR3-expression DNA that by itself minimally activated these pathways was used.
293T cells were transiently transfected using LipofectAMINE and PLUS reagents according to the manufacturer's instruction (Invitrogen). For reporter assays, 293T cells, at 5×10^5 cells/well, were seeded in 6-well plates and transfected with a total of 1 microgram of DNA. pC4 DNA was used as filler DNA. Conditioned supernatant was collected 24 hr post-transfection and assayed for secreted alkaline phosphatase (SEAP) activity using the Phospha-Light™ chemiluminescent reporter gene assay system (Tropix). pCMV-lacZ was used as internal control for transfection efficiency normalization.

[3] = biological target: T2, full length TNF-gamma-beta on the cell surface (HEK293F stable transfectants; transfected cells) (human, UniProt O95150 1-251); assay: flow cytometry on HEK293F cells expressing full length TNF-gamma-beta
T2 construct: also called TNF-gamma-beta expressing cells
T2 sequence: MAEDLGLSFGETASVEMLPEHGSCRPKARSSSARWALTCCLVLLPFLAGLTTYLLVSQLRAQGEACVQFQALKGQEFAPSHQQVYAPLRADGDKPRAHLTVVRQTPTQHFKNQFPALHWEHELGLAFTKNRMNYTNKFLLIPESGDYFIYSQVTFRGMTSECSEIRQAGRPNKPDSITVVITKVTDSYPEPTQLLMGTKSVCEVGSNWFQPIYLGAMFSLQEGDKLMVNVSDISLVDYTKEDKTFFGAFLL
Experimental: TR6 has been previously described as a decoy receptor (Pitti et al., Nature 396:699-703 (1998); Yu et al., J. Biol. Chem. 274:13733-6 (1999)) capable of competing with Fas and HveA for binding of FasL and LIGHT, respectively.
One million cells, in 0.1 ml of FACS buffer (PBS, 0.1% BSA, 0.1% NaN₃), were incubated with 0.1-1 microgram of protein or antibody at RT for 15 min. The cells were washed with 3 ml of FACS buffer, reacted with biotinylated primary antibody, and stained with PE-conjugated secondary antibody at RT for 15 min. Cells were then washed again, resuspended in 0.5 microgram/ml of propidium iodide, and live cells were gated and analyzed on a FACScan using the CellQuest software (BD Biosciences).

[4] = tested on: CB6F1 mice; assay: Parent-into-F1 acute graft-versus-host (in vivo MLR) model; parameters: species or system mouse; details: 3 mg/kg/day i.v. for 5 days
Experimental: Briefly, CB6F1 mice were injected with 1.5×10^8 pooled spleen cells of C57BL/6 mice administered intravenously on day 0.
The F1 (CB6F1) of C57BL/6×BALB/c mice (H-2^bxd) were transfused intravenously with 1.5×10^8 spleen cells from C57BL/6 mice (H-2^b) on day 0. […] The spleens of the recipient F1 mice were harvested on day 5, weighed and single cell suspensions prepared for in vitro assays.
Splenocytes from normal and the transfused F1 mice were cultured in triplicate in 96-well flat-bottomed plates (4×10^5 cells/200 microliters/well) for 2-4 days. After removing 100 microliters of supernatant per well on the day of harvest, 10 microliters Alamar Blue (Biosource) was added to each well and the cells cultured for additional 4 h. The cell number in each well was assessed according to OD590 nm minus OD530 nm background, using a CytoFluor apparatus (PerSeptive Biosystems). Cytokines in the culture supernatant were measured with commercial ELISA kits from Endogen or R & D Systems following manufacturer's instructions.

[5] = biological target: T3, TNF-gamma-beta (Homo sapiens, UniProt O95150); assay: Coimmunoprecipitation of TNF-gamma-beta by TNFR-Fc proteins; assay type: binding
T3 construct: made in house; host or cells: 293T cells, transient transfection
T3 sequence (O95150 72-251 limits assumed): T1 sequence (O95150 72-251)
Excerpt: The beads were then precipitated and washed extensively with PBST buffer (PBS, 0.5% Triton X-100) before boiled in SDS-sample buffer. Proteins were resolved on 4-20% Tris-Glycine gels (NOVEX), transferred to nitrocellulose membranes, and blotted with anti-Flag M2 monoclonal antibody (1 microgram/ml, Sigma) andhorseradish peroxidase (HRP)-conjugated goat anti-mouse IgG antibody (0.5 microgram/ml).

CCCCCCCCCCCCCC(=O)O[C@@H]1[C@@H](C)[C@@]2(O)[C@@H](C=C(CO)C[C@]3(O)C(=O)C(C)=C[C@@H]23)[C@@H]2C(C)(C)[C@]12OC(C)=O [PMA, reference compound]
time of peak in expression of TNF-gamma-beta mRNA [1]: 6 h | TNF-gamma-beta mRNA level [1]: rapidly induced high levels of TNF-gamma-beta mRNA

TNFR1.Fc: Fc-fusion of TNFR1, control receptor [reference compound]
inhibition of TNF-gamma-beta activation of NF-κB [2]: not able to inhibit | inhibition of TNF-gamma-beta activation of NF-κB ([2]; listed as TNFR1-Fc): but not by the addition of Fas-Fc or TNFR1-Fc

bFGF: growth factor stimulus of HUVEC cells [reference compound]
TNF-gamma-beta mRNA level [1]: did not significantly affect the expression of TNF-gamma-beta

B1: Fc-fusion form of the extracellular domain of DcR1 (Fc fusion, UniProt O14798 26-221, looked up)
chain: ATTARQEEVPQQTVAPQQQRHSFKGEECPAGSHRSEHTGACNPCTEGVDYTNASNNEPSCFPCTVCKSDQKHKSSCTMTRDTVCQCKEGTFRNENSPEMCRKCSRCPSGEVQVSNCTSWDDIQCVEEFGANATVETPAAEETMNTSPGTPAPAAEETMNTSPGTPAPAAEETMTTSPGTPAPAAEETMTTSPGTPA
notes: extracellular domain; not shown: Fc part of the fusion
binding result [3]: no binding

B2: Fc-fusion form of the extracellular domain of DcR2 (Fc fusion, UniProt Q9UBN6 56-211, looked up)
chain: ATIPRQDEVPQQTVAPQQQRRSLKEEECPAGSHRSEYTGACNPCTEGVDYTIASNNLPSCLLCTVCKSGQTNKSSCTTTRDTVCQCEKGSFQDKNSPEMCRTCRTGCPRGMVKVSNCTPRSDIKCKNESAASSTGKTPAAEETVTTILGMLASPYH
notes: as for B1
binding result [3]: no binding

B3: Fc-fusion form of the extracellular domain of RANK (Fc fusion, UniProt Q9Y6Q6 30-212, looked up)
chain: IAPPCTSEKHYEHLGRCCNKCEPGKYMSSKCTTTSDSVCLPCGPDEYLDSWNEEDKCLLHKVCDTGKALVAVVAGNSTTPRRCACTAGYHWSQDCECCRRNTECAPGLGAQHPLQLNKDTVCKPCLAGYFSDAFSSTDKCRPWTNCTFLGKRVEHHGTEKSDAVCSSSLPARKPPNEPHVYLP
notes: as for B1
binding result [3]: no binding

B4: Fc-fusion form of the extracellular domain of AITR (Fc fusion, UniProt Q9Y5U5 26-162, looked up)
chain: QRPTGGPGCGPGRLLLGTGTDARCCRVHTTRCCRDYPGEECCSEWDCMCVQPEFHCGDPCCTTCRHHPCPPGQGVQSQGKFSFGFQCIDCASGTFSGGHEGHCKPWTDCTQFGFLTVFPGNKTHNAVCVPGSPPAEP
notes: as for B1
binding result [3]: no binding

B5: Fc-fusion form of the extracellular domain of OX40 (Fc fusion, UniProt P43489 29-214, looked up)
chain: LHCVGDTYPSNDRCCHECRPGNGMVSRCSRSQNTVCRPCGPGFYNDVVSSKPCKPCTWCNLRSGSERKQLCTATQDTVCRCRAGTQPLDSYKPGVDCAPCPPGHFSPGDNQACKPWTNCTLAGKHTLQPASNSSDAICEDRDPPATQPQETQGPPARPITVQPTEAWPRTSQGPSTRPVEVPGGRA
notes: as for B1
binding result [3]: no binding

B6: TNFR1-Fc (Fc fusion, UniProt P19438 30-211, looked up)
chain: LVPHLGDREKRDSVCPQGKYIHPQNNSICCTKCHKGTYLYNDCPGPGQDTDCRECESGSFTASENHLRHCLSCSKCRKEMGQVEISSCTVDRDTVCGCRKNQYRHYWSENLFQCFNCSLCLNGTVHLSCQEKQNTVCTCHAGFFLRENECVSCSNCKKSLECTKLCLPQIENVKGTEDSGTT
notes: extracellular domain; also called Fc-fusion form of the extracellular domain of TNFR1; not shown: Fc part of the fusion
binding result [3]: no binding

B7: TL5: another TNF family ligand used here as a control (protein, UniProt O43557 83-240, looked up)
Tumor necrosis factor ligand …: LIQERRSHEVNPAAHLTGANSSLTGSGGPLLWETQLGLAFLRGLSYHDGALVVTKAGYYYIYSKVQLGGVGCPLGLASTITHGLYKRTPRYPEELELLVSQQSPCGRATSSSRVWWDSSFLGGVVHLEAGEKVVVRVLDERLVRLRDGTRSYFGAFMV
IL-2 production vs buffer group [4]: neither TNF-gamma-beta nor TL5 show any significant effect | IL-12 production vs buffer group [4]: neither TNF-gamma-beta nor TL5 show any significant effect | spleen weight vs buffer group [4]: no statistically significant difference from buffer group | spontaneous (ex-vivo) splenocyte proliferation vs buffer group [4]: no statistically significant difference from buffer group | GM-CSF production vs buffer group ([4]; splenocytes): no statistically significant difference from buffer group | INF-gamma production vs buffer group ([4]; splenocytes): no statistically significant difference from buffer group

B8: IL-1α: cytokine stimulus of HUVEC cells (protein, UniProt P01583 113-271, looked up)
Interleukin-1 alpha: SAPFSFLSNVKYNFMRIIKYEFILNDALNQSIIRANDQYLTAAALHNLDEAVKFDMGAYKSSKDDAKITVILRISKTQLYVTAQDEDQPVLLKEMPEIPKTITGSETNLLFFWETHGTKNYFTSVAHPNLFIATKQDYWVCLAGGPPSITDFQILENQA
time of peak in expression of TNF-gamma-beta mRNA [1]: 6 h | TNF-gamma-beta mRNA level [1]: rapidly induced high levels of TNF-gamma-beta mRNA

B9: IFNγ: cytokine stimulus of HUVEC cells (protein, UniProt P01579 24-161, looked up)
Interferon gamma: QDPYVKEAENLKKYFNAGHSDVADNGTLFLGILKNWKEESDRKIMQSQIVSFYFKLFKNFKDDQSIQKSVETIKEDMNVKFFNSNKKKRDDFEKLTNYSVTDLNVQRKAIHELIQVMAELSPAAKTGKRKRSQMLFRG
TNF-gamma-beta mRNA level [1]: did not significantly affect the expression of TNF-gamma-beta

B10: Fas-Fc: extracellular domain of Fas (aa 1-169) fused to Fc of human IgG1 (protein)
chain: QVTDINSKGLELRKTVTTVETQNLEGLHHDGQFCHKPCPPGERKARDCTVNGDEPDCVPCQEGKEYTDKAHFSSKCRRCRLCDEGHGLEVEINCTRTQNTKCRCKPNFFCNSTVCEHCDPCTKCEHGIIKECTLTSNTKCKEEG
modifications: left off: a dimerising Fc or GST
notes: extracellular domain of Fas (aa 1-169) fused to Fc of human IgG1
inhibition of TNF-gamma-beta activation of NF-κB [2]: but not by the addition of Fas-Fc or TNFR1-Fc | immunoprecipitation of TNF-gamma-beta [5]: could not immunoprecipitate FLAG-TNF-gamma-beta

B11: TACI-Fc: extracellular domain of TACI (aa 1-159) fused to Fc of human IgG1 (protein)
chain: MSGLGRSRRGGRSRVDQEERFPQGLWTGVAMRSCPEEQYWDPLLGTCMSCKTICNHQSQRTCAAFCRSLSCRKEQGKFYDHLLRDCISCASICGQHPKQCAYFCENKLRSPVNLPPELRRQRSGEVENNSDNSGRYQGLEHRGSEASPALPGLKLSADQ
modifications: left off: a dimerising Fc or GST
notes: extracellular domain of TACI (aa 1-159) fused to Fc of human IgG1
immunoprecipitation of TNF-gamma-beta [5]: could not immunoprecipitate FLAG-TNF-gamma-beta

— patent US20030129189A1, “Tumor necrosis factor-gamma” (priority 1994, published 2003)
